The labels stand for the following.
T1: FBF-2 RBD+CT (Caenorhabditis elegans, UniProt Q09312 164-632)
T1 sequence: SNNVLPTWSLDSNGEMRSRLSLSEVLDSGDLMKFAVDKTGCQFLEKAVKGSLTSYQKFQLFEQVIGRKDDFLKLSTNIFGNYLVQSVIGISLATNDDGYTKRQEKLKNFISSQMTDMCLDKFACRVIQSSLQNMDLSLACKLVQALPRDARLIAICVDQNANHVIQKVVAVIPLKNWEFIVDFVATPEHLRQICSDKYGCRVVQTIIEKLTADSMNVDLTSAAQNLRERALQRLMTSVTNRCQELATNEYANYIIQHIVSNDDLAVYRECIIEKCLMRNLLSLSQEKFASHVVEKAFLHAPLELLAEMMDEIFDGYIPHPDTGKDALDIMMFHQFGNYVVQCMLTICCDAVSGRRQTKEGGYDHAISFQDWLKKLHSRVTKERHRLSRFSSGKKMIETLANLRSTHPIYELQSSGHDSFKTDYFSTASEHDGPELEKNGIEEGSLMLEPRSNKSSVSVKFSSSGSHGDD

T2: FBF-2 RBD+CT Y479A (Caenorhabditis elegans, UniProt Q09312 164-632, Y479A)
T2 sequence: T1 sequence with Y316A

T3: FBF-2 RBD+CT Loop6A (Caenorhabditis elegans, UniProt Q09312 164-632, E592A;D594A;E597A;E599A;E604A;E605A)
T3 sequence: T1 sequence with E429A, D431A, E434A, E436A, E441A, E442A

T4: FBF-2 RBD (Caenorhabditis elegans, UniProt Q09312 164-575)
T4 sequence: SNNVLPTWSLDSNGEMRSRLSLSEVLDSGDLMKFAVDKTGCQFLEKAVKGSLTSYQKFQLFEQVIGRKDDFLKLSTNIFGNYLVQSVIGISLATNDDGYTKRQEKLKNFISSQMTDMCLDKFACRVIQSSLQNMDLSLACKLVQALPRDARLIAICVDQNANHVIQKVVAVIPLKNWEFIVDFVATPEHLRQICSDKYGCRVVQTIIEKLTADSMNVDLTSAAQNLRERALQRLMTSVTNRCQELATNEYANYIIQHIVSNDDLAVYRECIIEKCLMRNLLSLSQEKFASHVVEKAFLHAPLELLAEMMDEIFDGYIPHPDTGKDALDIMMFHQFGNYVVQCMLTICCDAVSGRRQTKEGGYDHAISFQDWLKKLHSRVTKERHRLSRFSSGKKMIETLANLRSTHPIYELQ

T5: FBF-2 RBD+CT L610A (Caenorhabditis elegans, UniProt Q09312 164-632, L610A)
T5 sequence: T1 sequence with L447A

T6: FBF-2 RBD (FBF-2 residues 164-575) (C. elegans, UniProt Q09312 164-575)
T6 chain: T4 sequence

T7: FBF-2 RBD + CT L610A (C. elegans, UniProt Q09312 164-632, L610A)
T7 sequence: T1 sequence with L447A

T8: FBF-2 RBD + CT (FBF-2 residues 164-632) (C. elegans, UniProt Q09312 164-632)
T8 chain: T1 sequence

T9: FBF-2 RBD + CT Loop6A (C. elegans, UniProt Q09312 164-632, E592A | D594A | E597A | E599A | E604A | E605A)
T9 sequence: T1 sequence with E429A, D431A, E434A, E436A, E441A, E442A

T10: FBF-2 RBD + CT L610A (C. elegans, UniProt Q09312 164-632, L610A)
T10 construct: source: E. coli, expressed and purified like wild type proteins; not shown: His6-SUMO, N-terminal, cleaved
T10 sequence (looked up): T1 sequence with L447A

T11: FBF-2 RBD + CT Loop6A (C. elegans, UniProt Q09312 164-632, E592A | D594A | E597A | E599A | E604A | E605A)
T11 construct: source: E. coli, expressed and purified like wild type proteins; not shown: His6-SUMO, N-terminal, cleaved
T11 sequence (looked up): T1 sequence with E429A, D431A, E434A, E436A, E441A, E442A

T12: FBF-2 RBD (FBF-2 residues 164-575) (C. elegans, UniProt Q09312 164-575)
T12 construct: The tag was cleaved with TEV protease; also called FBF-2^164–575; RBD alone; source: E. coli, purified (Ni-NTA, heparin, Superdex 75); not shown: His6-SUMO, N-terminal, cleaved
T12 sequence (looked up): T4 sequence

B1: FBF-2 RBD + CT (FBF-2 residues 164-632) (domain or fragment, C. elegans, UniProt Q09312 164-632, looked up)
chain: T1 sequence
notes: The tag was cleaved with Ulp1 protease; also called FBF-2^164–632; wild type RBD + CT; source: E. coli BL21-CodonPlus (DE3)-RIL, purified (Ni-NTA, heparin, Superdex 75); not shown: His6-SUMO, N-terminal, cleaved
B2: LST-1 B peptide (LST-1 residues 67-98) (peptide, UniProt P91820 67-98, looked up)
chain: SSSPQQRSGLRSQKLHLTYIEKNKRVRAMIPQ
notes: The tag was cleaved with Ulp1 protease; also called LST-1^67–98; source: E. coli, purified (Ni-NTA, heparin, Superdex 75); not shown: His6-SUMO, N-terminal, cleaved
B3: FBF-2 CT peptide (FBF-2 residues 601-632) (peptide, UniProt Q09312 601-632, looked up)
chain: NGIEEGSLMLEPRSNKSSVSVKFSSSGSHGDD
notes: holds the PIM SLMLEPR (607-613); The tag was cleaved with Ulp1 protease; also called FBF-2^601–632; source: E. coli BL21-CodonPlus (DE3)-RIL, purified (Ni-NTA, HiTrap Q flow-through, Superdex 75); not shown: His6-SUMO, N-terminal, cleaved

Residue numbers refer to the chain shown, from its start. Where “and” joins values, the source holds several entries; their conditions need not be identical. Equal entries are not always repeated.

One data set has as its target T1, FBF-2 RBD+CT. The data set is described as follows: SPR; kon 7.1e4 M-1 s-1, koff 4.42e-3 s-1; EMSA: FBF-2 in 20 mM HEPES pH 7.4, 150 mM NaCl, 0.5 mM TCEP mixed 1:1 with 5 nM final RNA in 10 mM HEPES pH 7.4, 0.01% Tween 20, 0.1 mg/ml BSA, 0.1 mg/ml yeast. Conditions: protein: recombinant; tags: none (His6-SUMO removed with Ulp1); label: 3'-biotin.
The target of the next data set is T2, FBF-2 RBD+CT Y479A. The data set is described as follows: SPR; kon 10.2e4 M-1 s-1, koff 1.18e-3 s-1; EMSA: FBF-2 in 20 mM HEPES pH 7.4, 150 mM NaCl, 0.5 mM TCEP mixed 1:1 with 5 nM final RNA in 10 mM HEPES pH 7.4, 0.01% Tween 20, 0.1 mg/ml BSA, 0.1 mg/ml yeast. Conditions: protein: recombinant; tags: none (His6-SUMO removed with Ulp1); label: 3'-biotin.
For another data set, the target named is T3, FBF-2 RBD+CT Loop6A. The data set is described as follows: SPR; kon 10.9e4 M-1 s-1, koff 0.94e-3 s-1; EMSA: FBF-2 in 20 mM HEPES pH 7.4, 150 mM NaCl, 0.5 mM TCEP mixed 1:1 with 5 nM final RNA in 10 mM HEPES pH 7.4, 0.01% Tween 20, 0.1 mg/ml BSA, 0.1 mg/ml yeast. Conditions: protein: recombinant; tags: none (His6-SUMO removed with Ulp1); label: 3'-biotin.

The next data set has as its target T4, FBF-2 RBD. The data set is described as follows: SPR; kon 13.6e4 M-1 s-1, koff 0.86e-3 s-1; EMSA: FBF-2 in 20 mM HEPES pH 7.4, 150 mM NaCl, 0.5 mM TCEP mixed 1:1 with 5 nM final RNA in 10 mM HEPES pH 7.4, 0.01% Tween 20, 0.1 mg/ml BSA, 0.1 mg/ml yeast. The following applies: protein: recombinant; tags: none (His6-SUMO removed with TEV protease); label: 3'-biotin.

Another data set addresses T5, FBF-2 RBD+CT L610A. The data set is described as follows: SPR; kon 15.5e4 M-1 s-1, koff 1.36e-3 s-1; EMSA: FBF-2 in 20 mM HEPES pH 7.4, 150 mM NaCl, 0.5 mM TCEP mixed 1:1 with 5 nM final RNA in 10 mM HEPES pH 7.4, 0.01% Tween 20, 0.1 mg/ml BSA, 0.1 mg/ml yeast. Conditions: protein: recombinant; tags: none (His6-SUMO removed with Ulp1); label: 3'-biotin.
Data set [1] deals with the molecule itself. The data set is described as follows: crystal structure; FBF-2 RBD + CT with cFBE RNA (5′-CUGUGAAUG-3′), 2.1 Å; CT residues 607-613 seen bound to the RBD of the same construct (intramolecular by the paper's words).
Data set [2] has as its target B1. The data set is described as follows: cell-based or functional assay.
In data set [3] the target is T6, FBF-2 RBD (FBF-2 residues 164-575). The data set is described as follows: ITC.
Data set [4] addresses T7, FBF-2 RBD + CT L610A. The data set is described as follows: ITC.
The target of data set [5] is T8, FBF-2 RBD + CT (FBF-2 residues 164-632). The data set is described as follows: ITC.
The target in data set [6] is T6, FBF-2 RBD (FBF-2 residues 164-575). The data set is described as follows: ITC.
Data set [7] deals with T9, FBF-2 RBD + CT Loop6A. The data set is described as follows: ITC.
Data set [8] has as its target B1. The data set is described as follows: ITC; peptide (100–400 µM) titrated from the syringe into the cell containing FBF-2 (10–30 µM); 20 °C; 20 mM HEPES pH 7.4, 150 mM NaCl, 0.5 mM TCEP; no RNA; one-site model; mean of two replicates. The following applies: both partners purified.
In data set [9] the target is T10, FBF-2 RBD + CT L610A. The description is as above. The following applies: both partners purified.
Data set [10] addresses T11, FBF-2 RBD + CT Loop6A. Described as above. The following applies: both partners purified.
The target of data set [11] is T12, FBF-2 RBD (FBF-2 residues 164-575). Described as above. Conditions: both partners purified.

With AUCAUGUGCCAUACA (ssRNA) [gld-1 FBEa RNA (SPR)], the Kd was 65.1 ± 21.1 nM with FBF-2 RBD+CT; 12.9 ± 6.4 nM with FBF-2 RBD+CT Y479A; 9.5 ± 4.2 nM with FBF-2 RBD+CT Loop6A; 6.6 ± 2.3 nM with FBF-2 RBD; 9.4 ± 3.6 nM with FBF-2 RBD+CT L610A.

With B1, the binding result in [1] was “binds”.

As to B2, the “RNA-binding affinity of FBF-2 RBD + CT for gld-1 FBEa RNA by EMSA in the presence of 50 µM LST-1 B” value in data set [2] worked out at 5 fold. In addition, the Kd in data set [3] is 50 nM; with FBF-2 RBD + CT L610A [4], 46 nM and 77 nM; in [5] it was 2100 nM and 3300 nM; in [6], 46 nM and 45 nM; with FBF-2 RBD + CT Loop6A [7], 1300 nM and 1100 nM; in data set [8], 2700 nM. In addition, in the data set with FBF-2 RBD + CT L610A [9], the Kd was 60 nM. In addition, the binding result in the data set with FBF-2 RBD + CT Loop6A [10] is listed as “binds”.

B3: in data set [11], binding was characterised by a dissociation constant (Kd) of 35000 nM.

These data come from article PMC10641069, “Intra- and inter-molecular regulation by intrinsically-disordered regions governs PUF protein RNA binding” (Nature Communications, 2023).
